Data taken from patent US9618524B2, “Method, composition, isolation and identification of a plaque particle and related biomarker” (Plaxgen Inc., priority 2012, dated 2017).

Experiments:
Test in all cases: Mass spectroscopy proteomics, semi-quantitative binding affinity of serum proteins (plaqueproteome, Table 2)
Details in all cases: higher number = stronger affinity
[1] = tested on: High Density cholesterol (Chl Large) plaque particles; design: species or system human
Procedure, shortened: (§1)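 Atherosclerotic plasma/serum (50% in PBS) + 30 μg cholesterol aggregates, 1 hr 37° C; FACS gates split low- vs high-density particles. Acetone precipitation, urea/ProteaseMAX, acrylamide alkylation, overnight Trypsin/Lys C at 37° C; Sequest search, Scaffold/Protein Prophet validation.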

[2] = tested on: Low density cholesterol (Chl small) plaque particles; design: species or system human
Procedure, shortened: as §1

Tau plaque particles = tested on: Tau plaque particles; design: species or system human
Procedure, shortened: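 Synthetic Tau-74 and Tau-275 peptides (1 mg/mL PBS, 37° C, 2 h) aggregated; 30 μg aggregates incubated with 50% serum/plasma 1 h at 37° C, stained with Thioflavin S, and plaque particles sorted by flow cytometry. Bound proteins trypsin-digested and identified by MS/MS against human UniProt.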

[3] = target: T1, Abeta-42 plaque particles (Homo sapiens, UniProt P05067)
T1 construct: Abeta 1-42
Procedure, shortened: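 AD patient serum or plasma (50% in PBS) was incubated with Abeta-42 aggregates (30 μg) for 1 h at 37 °C, then stained with Thioflavin S for 30 min. Labeled particles were FACS-sorted, trypsin/Lys-C digested overnight and analyzed by MS/MS. Sequest searched human UniProt; Scaffold/Protein Prophet validated the identifications.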

[4] = target: T2, alpha-synuclein plaque particles (Homo sapiens, UniProt P37840)
T2 construct: 140 amino acids polypeptide
Procedure, shortened: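 AD-subject plasma or serum (800 μL of 50%) mixed with 30 μg preformed alpha-synuclein aggregates for 1 h at 37 °C; Thioflavin S-positive particles isolated by flow sorting. After reduction, acrylamide alkylation and overnight tryptic digestion, serum proteins identified by MS/MS with Sequest and Scaffold.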

Row | Molecule | Semi-quantitative analysis of proteins binding to different plaque particles: Chl Large [1] | Semi-quantitative analysis of proteins binding to different plaque particles: Chl small [2] | Semi-quantitative analysis of proteins binding to different plaque particles: Tau (Tau plaque particles) | Semi-quantitative analysis of proteins binding to different plaque particles: Abeta-42 [3] | Semi-quantitative analysis of proteins binding to different plaque particles: Synuclein [4]
1 | Protein-glutamine gamma-glutamyltransferase E (protein) AALGVQSINWQTAFNRQAHHTDKFSSQELILRRGQNFQVLMIMNKGLGSNERLEFIVSTGPYPSESAMTKAVFPLSNGSSGGWSAVLQASNGNTLTISISSPASAPIGRYTMALQIFSQGGISSVKLGTFILLFNPWLNVDSVFMGNHAEREEYVQEDAGIIFVGSTNRIGMIGWNFGQFEEDILSICLSILDRSLNFRRDAATDVASRNDPKYVGRVLSAMINSNDDNGVLAGNWSGTYTGGRDPRSWNGSVEILKNWKKSGFSPVRYGQCWVFAGTLNTALRSLGIPSRVITNFNSAHDTDRNLSVDVYYDPMGNPLDKGSDSVWNFHVWNEGWFVRSDLGPSYGGWQVLDATPQERSQGVFQCGPASVIGVREGDVQLNFDMPFIFAEVNADRITWLYDNTTGKQWKNSVNSHTIGRYISTKAVGSNARMDVTDKYKYPEGSDQERQVFQKALGKLKPNTPFAATSSMGLETEEQEPSIIGKLKVAGMLAVGKEVNLVLLLKNLSRDTKTVTVNMTAWTIIYNGTLVHEVWKDSATMSLDPEEEAEHPIKISYAQYEKYLKSDNMIRITAVCKVPDESEVVVERDIILDNPTLTLEVLNEARVRKPVNVQMLFSNPLDEPVRDCVLMVEGSGLLLGNLKIDVPTLGPKEGSRVRFDILPSRSGTKQLLADFSCNKFPAIKAMLSIDVAE | 0 | 0 | 0 | 2 | 0
2 | Pregnancy zone protein (protein) TEPQYMVLVPSLLHTEAPKKGCVLLSHLNETVTVSASLESGRENRSLFTDLVAEKDLFHCVSFTLPRISASSEVAFLSIQIKGPTQDFRKRNTVLVLNTQSLVFVQTDKPMYKPGQTVRFRVVSVDENFRPRNELIPLIYLENPRRNRIAQWQSLKLEAGINQLSFPLSSEPIQGSYRVVVQTESGGRIQHPFTVEEFVLPKFEVKVQVPKIISIMDEKVNITVCGEYTYGKPVPGLATVSLCRKLSRVLNCDKQEVCEEFSQQLNSNGCITQQVHTKMLQITNTGFEMKLRVEARIREEGTDLEVTANRISEITNIVSKLKFVKVDSHFRQGIPFFAQVLLVDGKGVPIPNKLFFISVNDANYYSNATTNEQGLAQFSINTTSISVNKLFVRVFTVHPNLCFHYSWVAEDHQGAQHTANRVFSLSGSYIHLEPVAGTLPCGHTETITAHYTLNRQAMGELSELSFHYLIMAKGVIVRSGTHTLPVESGDMKGSFALSFPVESDVAPIARMFIFAILPDGEVVGDSEKFEIENCLANKVDLSFSPAQSPPASHAHLQVAAAPQSLCALRAVDQSVLLMKPEAELSVSSVYNLLTVKDLTNFPDNVDQQEEEQGHCPRPFFIHNGAIYVPLSSNEADIYSFLKGMGLKVFTNSKIRKPKSCSVIPSVSAGAVGQGYYGAGLGVVERPYVPQLGTYNVIPLNNEQSSGPVPETVRSYFPETWIWELVAVNSSGVAEVGVTVPDTITEWKAGAFCLSEDAGLGISSTASLRAFQPFFVELTMPYSVIRGEVFTLKATVLNYLPKCIRVSVQLKASPAFLASQNTKGEESYCICGNERQTLSWTVTPKTLGNVNFSVSAEAMQSLELCGNEVVEVPEIKRKDTVIKTLLVEAEGIEQEKTFSSMTCASGANVSEQLSLKLPSNVVKESARASFSVLGDILGSAMQNIQNLLQMPYGCGEQNMVLFAPNIYVLNYLNETQQLTQEIKAKAVGYLITGYQRQLNYKHQDGSYSTFGERYGRNQGNTWLTAFVLKTFAQARSYIFIDEAHITQSLTWLSQMQKDNGCFRSSGSLLNNAIKGGVEDEATLSAYVTIALLEIPLPVTNPIVRNALFCLESAWNVAKEGTHGSHVYTKALLAYAFSLLGKQNQNREILNSLDKEAVKEDNLVHWERPQRPKAPVGHLYQTQAPSAEVEMTSYVLLAYLTAQPAPTSGDLTSATNIVKWIMKQQNAQGGFSSTQDTVVALHALSRYGAATFTRTEKTAQVTVQDSQTFSTNFQVDNNNLLLLQQISLPELPGEYVITVTGERCVYLQTSMKYNILPEKEDSPFALKVQTVPQTCDGHKAHTSFQISLTISYTGNRPASNMVIVDVKMVSGFIPLKPTVKMLERSSSVSRTEVSNNHVLIYVEQVTNQTLSFSFMVLQDIPVGDLKPAIVKVYDYYETDESVVAEYIAPCSTDTEHGNV | 0 | 2 | 0 | 4 | 0
3 | Protein S100-A7 (protein) SNTQAERSIIGMIDMFHKYTRRDDKIEKPSLLTMMKENFPNFLSACDKKGTNYLADVFEKKDKNEDKKIDFSEFLSLLGDIATDYHKQSHGAAPCSGGSQ | 0 | 0 | 0 | 2 | 0
4 | Cluster of Interleukin enhancer-binding factor 3 (protein, UniProt Q12906 1-894, looked up) Interleukin enhancer-binding …: MRPMRIFVNDDRHVMAKHSSVYPTQEELEAVQNMVSHTERALKAVSDWIDEQEKGSSEQAESDNMDVPPEDDSKEGAGEQKTEHMTRTLRGVMRVGLVAKGLLLKGDLDLELVLLCKEKPTTALLDKVADNLAIQLAAVTEDKYEILQSVDDAAIVIKNTKEPPLSLTIHLTSPVVREEMEKVLAGETLSVNDPPDVLDRQKCLAALASLRHAKWFQARANGLKSCVIVIRVLRDLCTRVPTWGPLRGWPLELLCEKSIGTANRPMGAGEALRRVLECLASGIVMPDGSGIYDPCEKEATDAIGHLDRQQREDITQSAQHALRLAAFGQLHKVLGMDPLPSKMPKKPKNENPVDYTVQIPPSTTYAITPMKRPMEEDGEEKSPSKKKKKIQKKEEKAEPPQAMNALMRLNQLKPGLQYKLVSQTGPVHAPIFTMSVEVDGNSFEASGPSKKTAKLHVAVKVLQDMGLPTGAEGRDSSKGEDSAEETEAKPAVVAPAPVVEAVSTPSAAFPSDATAEQGPILTKHGKNPVMELNEKRRGLKYELISETGGSHDKRFVMEVEVDGQKFQGAGSNKKVAKAYAALAALEKLFPDTPLALDANKKKRAPVPVRGGPKFAAKPHNPGFGMGGPMHNEVPPPPNLRGRGRGGSIRGRGRGRGFGGANHGGYMNAGAGYGSYGYGGNSATAGYSQFYSNGGHSGNASGGGGGGGGGSSGYGSYYQGDNYNSPVPPKHAGKKQPHGGQQKPSYGSGYQSHQGQQQSYNQSPYSNYGPPQGKQKGYNHGQGSYSYSNSYNSPGGGGGSDYNYESKFNYSGSGGRSGGNSYGSGGASYNPGSHGGYGGGSGGGSSYQGKQGGYSQSNYNSPGSGQNYSGPPSSYQSSQGGYGRNADHSMNYQYR | 0 | 0 | 0 | 4 | 0
5 | Isoform C of Fibulin-1 (protein) DVLLEACCADGHRMATHQKDCSLPYATESKECRMVQEQCCHSQLEELHCATGISLANEQDRCATPHGDNASLEATFVKRCCHCCLLGRAAQAQGQSCEYSLMVGYQCGQVFQACCVKSQETGDLDVGGLQETDKIIEVEEEQEDPYLNDRCRGGGPCKQQCRDTGDEVVCSCFVGYQLLSDGVSCEDVNECITGSHSCRLGESCINTVGSFRCQRDSSCGTGYELTEDNSCKDIDECESGIHNCLPDFICQNTLGSFRCRPKLQCKSGFIQDALGNCIDINECLSISAPCPIGHTCINTEGSYTCQKNVPNCGRGYHLNEEGTRCVDVDECAPPAEPCGKGHRCVNSPGSFRCECKTGYYFDGISRMCVDVNECQRYPGRLCGHKCENTLGSYLCSCSVGFRLSVDGRSCEDINECSSSPCSQECANVYGSYQCYCRRGYQLSDVDGVTCEDIDECALPTGGHICSYRCINIPGSFQCSCPSSGYRLAPNGRNCQDIDECVTGIHNCSINETCFNIQGGFRCLAFECPENYRRSAATRCERLPCHENRECSKLPLRITYYHLSFPTNIQAPAVVFRMGPSSAVPGDSMQLAITGGNEEGFFTTRKVSPHSGVVALTKPVPEPRDLLLTVKMDLSRHGTVSSFVAKLFIFVSAEL | 1 | 2 | 0 | 0 | 1
6 | Isoform 2 of Glycogen synthase kinase-3 (protein) MSGRPRTTSFAESCKPVQQPSAFGSMKVSRDKDGSKVTTVVATPGQGPDRPQEVSYTDTKVIGNGSFGVVYQAKLCDSGELVAIKKVLQDKRFKNRELQIMRKLDHCNIVRLRYFFYSSGEKKDEVYLNLVLDYVPETVYRVARHYSRAKQTLPVIYVKLYMYQLFRSLAYIHSFGICHRDIKPQNLLLDPDTAVLKLCDFGSAKQLVRGEPNVSYICSRYYRAPELIFGATDYTSSIDVWSAGCVLAELLLGQPIFPGDSGVDQLVEIIKVLGTPTREQIREMNPNYTEFKFPQIKAHPWTKDSSGTGHFTSGVRVFRPRTPPEAIALCSRLLEYTPTARLTPLEACAHSFFDELRDPNVKLPNGRDTPALFNFTTQELSSNPPLATILIPPHARIQAAASTPTNATAASDANTGDRGQTNNAASASASNST | 0 | 0 | 0 | 4 | 0
